Assays:
[1] = target: T1, A13DBD V373G (mouse (murine), UniProt Q62424 320-386, V373G); experiment: competition; 50 nM already competes with consensus; 4 uM protein; FA: 20 mM Tris pH 7.5, 80 mM KCl, 10 mM MgCl2, 0.2 mM EDTA, 1 mM DTT, 15 C, 1 nM DNA; NMR complex: 20 mM NaPO4 pH 6.0, 5 mM MgCl2, 10% D2O, 310 K; ITC buffer not given in the material; details: protein: recombinant; tags: His-tag removed by thrombin; hairpin (self-annealing)
[2] = target: T2, A13DBD WT (mouse (murine), UniProt Q62424 320-386); experiment: fluorescence anisotropy; 10 mM MgCl2; FA: 20 mM Tris pH 7.5, 80 mM KCl, 10 mM MgCl2, 0.2 mM EDTA, 1 mM DTT, 15 C, 1 nM DNA; NMR complex: 20 mM NaPO4 pH 6.0, 5 mM MgCl2, 10% D2O, 310 K; ITC buffer not given in the material; details: protein: recombinant; tags: His-tag removed by thrombin; label: 5' 6-FAM via hexyl linker; hairpin (self-annealing)
[3] = target: T1, A13DBD V373G; experiment: as above; details: protein: recombinant; tags: His-tag removed by thrombin; label: 5' 6-FAM via hexyl linker; hairpin (self-annealing)
[4] = target: T2, A13DBD WT; experiment: fluorescence anisotropy; 10 mM MgCl2; text fold changes suggest T6*C and T6*U swapped; FA: 20 mM Tris pH 7.5, 80 mM KCl, 10 mM MgCl2, 0.2 mM EDTA, 1 mM DTT, 15 C, 1 nM DNA; NMR complex: 20 mM NaPO4 pH 6.0, 5 mM MgCl2, 10% D2O, 310 K; ITC buffer not given in the material; details: protein: recombinant; tags: His-tag removed by thrombin; label: 5' 6-FAM via hexyl linker; hairpin (self-annealing)
[5] = target: T2, A13DBD WT; experiment: ITC; FA: 20 mM Tris pH 7.5, 80 mM KCl, 10 mM MgCl2, 0.2 mM EDTA, 1 mM DTT, 15 C, 1 nM DNA; NMR complex: 20 mM NaPO4 pH 6.0, 5 mM MgCl2, 10% D2O, 310 K; ITC buffer not given in the material; details: protein: recombinant, tags: His-tag removed by thrombin
[6] = target: T1, A13DBD V373G; experiment: as above; details: protein: recombinant; tags: His-tag removed by thrombin; C5-A5* mismatch with strand 2 as printed
[7] = target: A13DBD I366A (mouse (murine), UniProt Q62424 320-386, I366A); experiment: as above; details: protein: recombinant; tags: His-tag removed by thrombin; blunt
[8] = target: A13DBD V373A (mouse (murine), UniProt Q62424 320-386, V373A); experiment: as above; details: protein: recombinant; tags: His-tag removed by thrombin; blunt
[9] = target: A13DBD F344A (mouse (murine), UniProt Q62424 320-386, F344A); experiment: ITC; does not affect DNA binding; FA: 20 mM Tris pH 7.5, 80 mM KCl, 10 mM MgCl2, 0.2 mM EDTA, 1 mM DTT, 15 C, 1 nM DNA; NMR complex: 20 mM NaPO4 pH 6.0, 5 mM MgCl2, 10% D2O, 310 K; ITC buffer not given in the material; details: protein: recombinant; tags: His-tag removed by thrombin; blunt
[10] = target: T1, A13DBD V373G; experiment: ITC; text says 3-4-fold lower affinity; FA: 20 mM Tris pH 7.5, 80 mM KCl, 10 mM MgCl2, 0.2 mM EDTA, 1 mM DTT, 15 C, 1 nM DNA; NMR complex: 20 mM NaPO4 pH 6.0, 5 mM MgCl2, 10% D2O, 310 K; ITC buffer not given in the material; details: protein: recombinant; tags: His-tag removed by thrombin; blunt
[11] = target: A13DBD N370A (mouse (murine), UniProt Q62424 320-386, N370A); experiment: ITC; text says ~1000-fold lower affinity; FA: 20 mM Tris pH 7.5, 80 mM KCl, 10 mM MgCl2, 0.2 mM EDTA, 1 mM DTT, 15 C, 1 nM DNA; NMR complex: 20 mM NaPO4 pH 6.0, 5 mM MgCl2, 10% D2O, 310 K; ITC buffer not given in the material; details: protein: recombinant; tags: His-tag removed by thrombin; blunt
A13DBD N370A, sequence (Q62424 320-386 N370A): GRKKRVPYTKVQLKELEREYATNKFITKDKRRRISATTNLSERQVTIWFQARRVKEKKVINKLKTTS

T1 sequence (Q62424 320-386 V373G): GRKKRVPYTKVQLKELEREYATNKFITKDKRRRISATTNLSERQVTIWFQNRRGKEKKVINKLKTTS
T2 sequence (Q62424 320-386): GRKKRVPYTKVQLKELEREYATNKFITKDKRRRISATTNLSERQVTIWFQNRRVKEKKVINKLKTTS
A13DBD I366A, sequence (Q62424 320-386 I366A): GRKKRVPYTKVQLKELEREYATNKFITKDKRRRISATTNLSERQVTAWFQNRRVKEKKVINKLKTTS
A13DBD F344A, sequence (Q62424 320-386 F344A): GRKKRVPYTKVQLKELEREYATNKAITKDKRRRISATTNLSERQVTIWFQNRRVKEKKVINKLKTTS
A13DBD V373A, sequence (Q62424 320-386 V373A): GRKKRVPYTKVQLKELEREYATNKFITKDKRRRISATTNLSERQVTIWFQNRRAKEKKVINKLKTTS

TGACTGACTGACTGCCCCCCAGTCAG (structured_DNA) [Scrambled]
binding result [1]: binds

CAAACAAAATCCCCCATTTTGTTTG (structured_DNA) [FA T5C]
Kd [2]: 49.2 ± 4.97 nM | Kd [3]: 616 ± 56.1 nM

CAAATGAAATCCCCCATTTCATTG (structured_DNA) [FA T6*C]
Kd [4]: 5.95 ± 0.64 nM | Kd [3]: 79.3 ± 6.93 nM

B1: 11-mer T5C (dsDNA)
DNA 1: CAAACAAAATC
DNA 2: GATTTTATTTG
Kd ([5]; C5-A5* mismatch with strand 2 as printed): 286 nM | Kd [6]: 617 nM

CAAATAAAATCCCCCATTTTATTTG (structured_DNA) [FA consensus (wt)]
Kd [2]: 2.19 ± 0.06 nM | Kd [3]: 56.6 ± 2.25 nM

CAAAUAAATCCCCCATTTTATTGTG (structured_DNA, deoxyuridine at position 5) [FA T5U]
Kd [2]: 4.01 ± 0.28 nM

B2: 11-mer duplex WT (dsDNA)
DNA 1: CAAATAAAATC
DNA 2: GATTTTATTTG
Kd ([5]; blunt): 7.5 nM | Kd [7]: 43.7 nM | Kd [8]: 18.7 nM | binding result [9]: binds | Kd [10]: 137 nM | Kd [11]: 862 nM

B3: 11-mer T5U (dsDNA)
DNA 1: CAAAUAAAATC
DNA 2: GATTTTATTTG
modifications: deoxyuridine at T5 (DNA strand)
Kd ([5]; blunt): 14.5 nM
